The values below come from publication PMC7268548, “A missense variant in specificity protein 6 (SP6) is associated with amelogenesis imperfecta”.

In series [1] the target is T1, SP6 p.(Ala273Lys) (Homo sapiens, UniProt Q3SY56 1-376, A273K).
T1 sequence: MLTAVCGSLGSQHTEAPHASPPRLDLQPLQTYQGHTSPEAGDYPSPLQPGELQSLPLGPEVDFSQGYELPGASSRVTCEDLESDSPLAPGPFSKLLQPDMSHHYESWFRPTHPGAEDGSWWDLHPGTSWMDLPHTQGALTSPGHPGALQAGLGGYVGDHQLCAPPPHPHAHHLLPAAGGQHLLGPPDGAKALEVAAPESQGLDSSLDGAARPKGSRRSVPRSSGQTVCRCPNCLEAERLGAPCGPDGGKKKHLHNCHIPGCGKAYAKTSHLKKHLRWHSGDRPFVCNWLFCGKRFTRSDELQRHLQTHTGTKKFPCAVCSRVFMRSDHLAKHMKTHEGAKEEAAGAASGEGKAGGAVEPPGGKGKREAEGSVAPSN
Description: SPR; up to 400 nM; data not shown; Biacore 3000 SPR, 10 mM HEPES pH 7.5, 200 mM NaCl, 0.01% surfactant P-20, 25 C, 40 uL/min, protein 6.25-400 nM, DNA on SA chip. As to conditions: protein: recombinant; tags: N-terminal His-GST; label: 5'-biotin on forward strand; blunt.

The target in series [2] is T2, SP6 wild type (Homo sapiens, UniProt Q3SY56 1-376).
T2 sequence: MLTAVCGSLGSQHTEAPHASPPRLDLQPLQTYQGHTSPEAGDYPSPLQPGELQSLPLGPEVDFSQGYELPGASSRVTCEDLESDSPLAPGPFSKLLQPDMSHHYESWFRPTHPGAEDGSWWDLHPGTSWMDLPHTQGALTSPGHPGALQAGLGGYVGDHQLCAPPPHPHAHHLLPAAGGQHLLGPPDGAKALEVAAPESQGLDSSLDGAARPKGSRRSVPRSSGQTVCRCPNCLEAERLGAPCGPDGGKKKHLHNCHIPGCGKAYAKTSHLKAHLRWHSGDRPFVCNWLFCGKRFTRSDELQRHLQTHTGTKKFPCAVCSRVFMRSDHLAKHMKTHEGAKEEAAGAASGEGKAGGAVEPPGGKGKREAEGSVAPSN
The description is as above. As to conditions: protein: recombinant; tags: N-terminal His-GST; label: 5'-biotin on forward strand; blunt.

B1: NKX2-1 promoter probe (SP3 site control) (dsDNA)
DNA 1: GGGATCCGGGACAGCCTCCGGGAGGCAGTCGATCCCCTAC
DNA 2: GTAGGGGATCGACTGCCTCCCGGAGGCTGTCCCGGATCCC
Consider B1, for which the binding result in series [1] and in series [2] was “no binding” each time.
